Measurements reported in article PMC6692119 (Nature, 2017).
Each block holds one binder with its values, some of them ahead of it.

Columns and labels:
Test in all cases: cryo-EM structure
[1] = biological target: T1, Med17 (S. pombe Mediator subunit) (S. pombe, UniProt P87306 1-545)
T1 sequence (looked up): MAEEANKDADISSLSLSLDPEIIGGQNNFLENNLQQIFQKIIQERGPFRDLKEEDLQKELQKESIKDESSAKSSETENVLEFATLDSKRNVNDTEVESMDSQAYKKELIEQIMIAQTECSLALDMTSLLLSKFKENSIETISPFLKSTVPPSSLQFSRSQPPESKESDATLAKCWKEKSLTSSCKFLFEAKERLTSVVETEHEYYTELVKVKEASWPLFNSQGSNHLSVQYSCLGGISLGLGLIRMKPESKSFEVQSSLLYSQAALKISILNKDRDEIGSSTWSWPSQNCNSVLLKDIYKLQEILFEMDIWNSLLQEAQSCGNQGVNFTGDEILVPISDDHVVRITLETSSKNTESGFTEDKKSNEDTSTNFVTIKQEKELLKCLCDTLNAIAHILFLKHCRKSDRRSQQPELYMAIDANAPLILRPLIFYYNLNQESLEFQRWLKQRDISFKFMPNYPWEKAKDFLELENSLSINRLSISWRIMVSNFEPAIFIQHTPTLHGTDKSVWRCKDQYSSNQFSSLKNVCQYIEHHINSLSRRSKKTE

[2] = biological target: T2, Med14 (S. pombe Mediator subunit) (S. pombe, UniProt Q9P7Y4 1-879)
T2 sequence (looked up): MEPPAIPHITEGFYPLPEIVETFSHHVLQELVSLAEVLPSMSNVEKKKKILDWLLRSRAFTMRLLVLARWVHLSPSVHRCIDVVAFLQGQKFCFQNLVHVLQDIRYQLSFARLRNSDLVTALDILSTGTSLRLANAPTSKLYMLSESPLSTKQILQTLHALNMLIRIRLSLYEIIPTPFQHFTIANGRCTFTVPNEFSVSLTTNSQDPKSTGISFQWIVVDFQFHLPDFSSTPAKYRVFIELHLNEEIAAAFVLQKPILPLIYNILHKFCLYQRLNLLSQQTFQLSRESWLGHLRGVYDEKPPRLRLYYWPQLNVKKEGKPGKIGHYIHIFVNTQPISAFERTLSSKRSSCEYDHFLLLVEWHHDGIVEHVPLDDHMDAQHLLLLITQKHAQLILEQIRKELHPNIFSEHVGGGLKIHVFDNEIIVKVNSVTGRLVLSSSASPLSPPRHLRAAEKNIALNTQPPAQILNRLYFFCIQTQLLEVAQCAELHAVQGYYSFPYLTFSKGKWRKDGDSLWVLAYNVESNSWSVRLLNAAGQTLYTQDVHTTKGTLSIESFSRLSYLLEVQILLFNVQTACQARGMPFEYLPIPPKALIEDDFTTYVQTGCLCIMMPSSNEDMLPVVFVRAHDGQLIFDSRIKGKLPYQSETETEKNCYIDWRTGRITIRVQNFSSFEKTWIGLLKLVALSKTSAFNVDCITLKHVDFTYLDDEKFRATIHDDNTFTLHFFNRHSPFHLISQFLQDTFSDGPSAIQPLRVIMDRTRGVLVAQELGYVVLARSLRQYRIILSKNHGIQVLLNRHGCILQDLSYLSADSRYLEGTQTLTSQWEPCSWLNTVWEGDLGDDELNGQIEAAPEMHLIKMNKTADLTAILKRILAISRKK

[3] = biological target: T3, Med18 (S. pombe Mediator subunit) (S. pombe, UniProt O14198 1-207)
T3 sequence (looked up): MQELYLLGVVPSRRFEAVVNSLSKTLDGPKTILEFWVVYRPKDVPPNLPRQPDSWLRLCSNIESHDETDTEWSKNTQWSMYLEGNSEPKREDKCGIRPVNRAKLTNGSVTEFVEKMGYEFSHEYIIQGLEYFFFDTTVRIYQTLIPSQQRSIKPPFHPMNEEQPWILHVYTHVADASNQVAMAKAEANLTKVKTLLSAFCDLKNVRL

binding result [1]: binds
B1: Med31 (S. pombe Mediator subunit) (natural protein, UniProt Q9USH1 1-139, looked up)
chain: METKWLLSKVPDDKSRFEIELEFVQMLSNPWYLNFLAQHKYFEDEAFLQYLEYMEYWREPEYVKFIIYPTCLHMLTLLKNPQFRNDISRADLSKQVNDEIYYEWLGKGLQQYGSADDATLSQPQQEEDEKKVDVKKENE

binding result [2]: binds | binding result [1]: binds
B2: Med27 (S. pombe Mediator subunit) (natural protein, UniProt Q10477 1-273, looked up)
chain: MSLEEQRTRDELKHKLLDLNQLHEQLAELRTICPSLLKLLHPETGTSRKFEKSAQEAIEKVNSFYTHLKSSQNVFDYAEKSLQADSSNLLPTYLYNSEDLSNDTENNETKSINGKSALDLKEPHHSELHDNDNFQNSDINIESFKGDIEASGSILTTHENKSFTLKLANELEFIFFHDTRGKFSVYCSSSKDDAITFSINRNNNFLGNLWSLMPKILDYQHLYSKPCDFCKSLISPVYLELPSVRRNANSTVKPTSKDILALHAECVPAQSDL

binding result [3]: binds
B3: Med20 (S. pombe Mediator subunit) (natural protein, UniProt Q10317 1-193, looked up)
chain: MPVHGVIYYSSPSMATFLSPAQDNLVRTYFAQHLKKWVVQYKLYRNAVTPKTLEFLKQNINPSMLACVDEATMIDAEPELEDIIVRTKLWNFRQSFTIEGSIYEVGSFKVAIANVLQKSVWKGILFHVTYDGTESVDLARPIIQEFFLKCFLQNNKSVTPVYESFFNQPRHSLDSKLLLQLFKQRIDTVSQRT

binding result [1]: binds
B4: Med7-TAP (S. pombe Mediator subunit) (natural protein, UniProt O60104 1-376, looked up)
chain: MEPNEGVQLFSAFPPPPPYYKLFTRENIEKVISNMEKEAKHEDDANTLQPKTEEEIESLAKLFKKPSCLTSGTYQMFGDTWRLDEAIPSLKEFGIPELYKDIKDGEDEIEVVEYDPKSNAIVGTSFTRVHDYDKNSPIENEKILEDDQHTAMKEKDNESDKTMKDVEEKTEPSLKKEEEDIQMKEPLDSQDTGAVSASSVNEGFRADQKSKDGETSDLIKIPRRAYELRFLSRSLMLNFLELLGIMAKAPEQFPSKVENIRVLLLNLHHLINDYRPHQSRESLIMLLEKQLKHEESQVELLRTHNRQMTETLEKYKSLDFNMEKEGDVIQQLKSSIKKPLSGAEDEQKSRSMFSKNDEKLKKSLELMEDVIKRDLS
